# Laboratory results as given in the supplement of paper PMC10065799, “High-throughput profiling of sequence recognition by tyrosine kinases and SH2 domains using bacterial peptide display” (eLife, 2023).
# Target: Hck (UniProt P08631)
# Test: phosphorylation enrichment, bacterial display (enrichment ratio); higher = better substrate or ligand; peptides without Tyr show the background
# 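Wherever SH2 binding enrichment of the phosphorylated peptide, bacterial display is given: peptide library displayed on the E. coli surface as eCPX fusions, selected cells deep-sequenced, score is each peptide's frequency after selection divided by its frequency in the input.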
# 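Wherever phosphorylation enrichment, bacterial display is given: 11-residue human phosphosite peptides and single-mutation variants displayed on the E. coli surface, counted by deep sequencing, each peptide's frequency after selection divided by its frequency in the unselected input library; frequency after pTyr selection over input frequency; kinase dosed for 20-30% of maximal phosphorylation in three min.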
# Hck, sequence (P08631 whole entry, looked up): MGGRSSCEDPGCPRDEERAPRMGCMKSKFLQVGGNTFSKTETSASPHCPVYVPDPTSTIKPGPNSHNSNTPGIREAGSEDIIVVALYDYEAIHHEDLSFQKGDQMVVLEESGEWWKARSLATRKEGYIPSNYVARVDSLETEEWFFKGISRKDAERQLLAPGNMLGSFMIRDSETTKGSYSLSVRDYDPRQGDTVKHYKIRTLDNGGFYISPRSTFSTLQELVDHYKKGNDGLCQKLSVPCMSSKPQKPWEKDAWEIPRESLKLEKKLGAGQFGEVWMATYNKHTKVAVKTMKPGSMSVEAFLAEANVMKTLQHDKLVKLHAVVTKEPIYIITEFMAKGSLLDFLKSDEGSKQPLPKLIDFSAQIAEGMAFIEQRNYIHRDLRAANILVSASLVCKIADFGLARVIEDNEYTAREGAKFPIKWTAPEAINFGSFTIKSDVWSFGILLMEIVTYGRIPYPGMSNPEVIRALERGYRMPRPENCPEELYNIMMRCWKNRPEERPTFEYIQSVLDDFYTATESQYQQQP
row,Sequence,phosphorylation enrichment
1,ILGLEYSLRVP [HELZ2_Y1304],0.567
2,LWEGSYGKVKE [STK11_Y60_G56W],0.678
3,LANNEYYFQVC,1.19
4,VVIVLYFSLWK [SLC6A2_Y249],0.42
5,SEPDLYFDPRG [PKP1_Y160_C161Y_YF],9.33
6,AEFGLYAAMVR [VSX2_Y222_G223A_YF],4.34
7,KELAKYYKLHH [AK7_Y390_N389K],0.39
8,YIPSNYVAEDR [FRK_Y104],0.501
9,FCRITYDIFPF [INTS13_Y67_M66T_YF],2.62
10,SYCYRYRCAPR [SUMF1_Y344_A348P],0.43
11,CTTIHYNYMCH [TP53_Y234_N239H],0.49
12,TLEKYYFAFPG [SLC1A1_Y51_F50Y],3.38
13,TINPIHEHVGF [CHN1_Y143_Y143H_YF],0.299
14,IHFAIYLLKYS [ARMC9_Y107],0.463
15,NTGDYCDLYGG [PTPN11_Y63_Y63C],3.78
16,QCTSDYPEHVC [SART3_Y541],0.831

# Target: Jak2 (UniProt O60674)
# Test: as above
# Jak2, sequence (O60674 whole entry, looked up): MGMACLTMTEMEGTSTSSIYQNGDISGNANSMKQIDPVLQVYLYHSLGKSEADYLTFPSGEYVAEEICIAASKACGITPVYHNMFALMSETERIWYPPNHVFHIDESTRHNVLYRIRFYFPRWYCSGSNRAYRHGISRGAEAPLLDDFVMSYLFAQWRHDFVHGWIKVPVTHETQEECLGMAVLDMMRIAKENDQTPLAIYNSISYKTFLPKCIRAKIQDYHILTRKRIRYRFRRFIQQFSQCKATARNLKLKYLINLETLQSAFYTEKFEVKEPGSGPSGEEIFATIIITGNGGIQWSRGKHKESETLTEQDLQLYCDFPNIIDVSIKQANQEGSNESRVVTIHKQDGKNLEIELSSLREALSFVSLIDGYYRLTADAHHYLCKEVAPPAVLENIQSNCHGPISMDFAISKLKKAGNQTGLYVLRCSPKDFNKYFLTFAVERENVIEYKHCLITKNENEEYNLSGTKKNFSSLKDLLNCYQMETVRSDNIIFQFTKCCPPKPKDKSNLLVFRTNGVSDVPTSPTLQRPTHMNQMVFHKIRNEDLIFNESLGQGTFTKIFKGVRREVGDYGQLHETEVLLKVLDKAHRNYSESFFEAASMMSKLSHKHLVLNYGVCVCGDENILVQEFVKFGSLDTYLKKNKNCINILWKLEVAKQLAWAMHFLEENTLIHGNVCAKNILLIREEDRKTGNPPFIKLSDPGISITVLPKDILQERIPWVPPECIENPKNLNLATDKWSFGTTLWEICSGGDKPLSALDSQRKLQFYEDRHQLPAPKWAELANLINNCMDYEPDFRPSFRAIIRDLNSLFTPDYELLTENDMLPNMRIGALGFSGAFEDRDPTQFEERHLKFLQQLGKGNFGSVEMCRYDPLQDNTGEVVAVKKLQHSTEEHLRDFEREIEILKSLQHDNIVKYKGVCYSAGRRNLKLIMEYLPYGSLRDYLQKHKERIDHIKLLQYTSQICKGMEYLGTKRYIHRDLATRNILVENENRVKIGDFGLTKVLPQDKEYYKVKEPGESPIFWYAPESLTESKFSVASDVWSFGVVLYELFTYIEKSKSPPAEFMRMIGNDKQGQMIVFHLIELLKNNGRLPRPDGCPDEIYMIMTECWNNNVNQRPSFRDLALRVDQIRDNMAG
row,Sequence,phosphorylation enrichment
1,ILGLEYSLRVP [HELZ2_Y1304],1.05
2,LWEGSYGKVKE [STK11_Y60_G56W],1.08
3,LANNEYYFQVC,2.34
4,VVIVLYFSLWK [SLC6A2_Y249],0.64
5,SEPDLYFDPRG [PKP1_Y160_C161Y_YF],3.41
6,AEFGLYAAMVR [VSX2_Y222_G223A_YF],1.54
7,KELAKYYKLHH [AK7_Y390_N389K],0.379
8,YIPSNYVAEDR [FRK_Y104],0.721
9,FCRITYDIFPF [INTS13_Y67_M66T_YF],1.29
10,SYCYRYRCAPR [SUMF1_Y344_A348P],0.459
11,CTTIHYNYMCH [TP53_Y234_N239H],0.672
12,TLEKYYFAFPG [SLC1A1_Y51_F50Y],8.54
13,TINPIHEHVGF [CHN1_Y143_Y143H_YF],0.429
14,IHFAIYLLKYS [ARMC9_Y107],0.917
15,NTGDYCDLYGG [PTPN11_Y63_Y63C],1.04
16,QCTSDYPEHVC [SART3_Y541],1.64

# Target: EPHB1 (UniProt P54762)
# Test: as above
# EPHB1, sequence (P54762 whole entry, looked up): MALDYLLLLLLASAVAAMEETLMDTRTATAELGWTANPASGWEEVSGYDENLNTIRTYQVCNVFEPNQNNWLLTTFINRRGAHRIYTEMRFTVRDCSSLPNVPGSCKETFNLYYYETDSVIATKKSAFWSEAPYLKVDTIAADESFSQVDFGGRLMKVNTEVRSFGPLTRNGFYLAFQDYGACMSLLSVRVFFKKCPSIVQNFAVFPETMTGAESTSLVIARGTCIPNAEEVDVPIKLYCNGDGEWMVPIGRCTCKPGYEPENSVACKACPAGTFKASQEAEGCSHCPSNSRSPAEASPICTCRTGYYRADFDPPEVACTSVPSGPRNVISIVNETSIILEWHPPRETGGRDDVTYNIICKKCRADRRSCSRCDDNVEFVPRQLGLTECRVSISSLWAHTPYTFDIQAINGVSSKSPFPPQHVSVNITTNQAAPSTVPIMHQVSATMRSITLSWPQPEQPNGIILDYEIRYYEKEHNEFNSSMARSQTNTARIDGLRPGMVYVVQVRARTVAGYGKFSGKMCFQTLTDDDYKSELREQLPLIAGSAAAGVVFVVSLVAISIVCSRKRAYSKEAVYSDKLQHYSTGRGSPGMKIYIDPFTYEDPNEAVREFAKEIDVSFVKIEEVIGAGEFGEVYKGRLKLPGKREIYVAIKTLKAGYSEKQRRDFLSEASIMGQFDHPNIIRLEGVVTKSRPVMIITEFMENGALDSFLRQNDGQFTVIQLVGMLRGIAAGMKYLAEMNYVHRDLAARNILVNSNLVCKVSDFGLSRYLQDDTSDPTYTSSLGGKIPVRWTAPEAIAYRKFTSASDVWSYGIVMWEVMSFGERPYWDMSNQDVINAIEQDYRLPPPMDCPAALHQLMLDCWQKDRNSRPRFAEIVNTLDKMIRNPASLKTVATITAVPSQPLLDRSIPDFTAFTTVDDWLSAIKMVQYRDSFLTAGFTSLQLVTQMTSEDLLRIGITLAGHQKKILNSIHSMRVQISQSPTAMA
row,Sequence,phosphorylation enrichment
1,ILGLEYSLRVP [HELZ2_Y1304],0.49
2,LWEGSYGKVKE [STK11_Y60_G56W],0.476
3,LANNEYYFQVC,1.63
4,VVIVLYFSLWK [SLC6A2_Y249],0.254
5,SEPDLYFDPRG [PKP1_Y160_C161Y_YF],13.1
6,AEFGLYAAMVR [VSX2_Y222_G223A_YF],2.79
7,KELAKYYKLHH [AK7_Y390_N389K],0.366
8,YIPSNYVAEDR [FRK_Y104],0.519
9,FCRITYDIFPF [INTS13_Y67_M66T_YF],2.38
10,SYCYRYRCAPR [SUMF1_Y344_A348P],0.441
11,CTTIHYNYMCH [TP53_Y234_N239H],0.724
12,TLEKYYFAFPG [SLC1A1_Y51_F50Y],7.36
13,TINPIHEHVGF [CHN1_Y143_Y143H_YF],0.321
14,IHFAIYLLKYS [ARMC9_Y107],0.486
15,NTGDYCDLYGG [PTPN11_Y63_Y63C],9.45
16,QCTSDYPEHVC [SART3_Y541],0.929

# Tested on: c-Src
# Test: as above
row,Sequence,phosphorylation enrichment
1,ILGLEYSLRVP [HELZ2_Y1304],0.947
2,LWEGSYGKVKE [STK11_Y60_G56W],0.721
3,LANNEYYFQVC,1.94
4,VVIVLYFSLWK [SLC6A2_Y249],0.348
5,SEPDLYFDPRG [PKP1_Y160_C161Y_YF],4.46
6,AEFGLYAAMVR [VSX2_Y222_G223A_YF],2.17
7,KELAKYYKLHH [AK7_Y390_N389K],0.439
8,YIPSNYVAEDR [FRK_Y104],0.536
9,FCRITYDIFPF [INTS13_Y67_M66T_YF],2.36
10,SYCYRYRCAPR [SUMF1_Y344_A348P],0.488
11,CTTIHYNYMCH [TP53_Y234_N239H],0.506
12,TLEKYYFAFPG [SLC1A1_Y51_F50Y],6.16
13,TINPIHEHVGF [CHN1_Y143_Y143H_YF],0.339
14,IHFAIYLLKYS [ARMC9_Y107],0.446
15,NTGDYCDLYGG [PTPN11_Y63_Y63C],2.91
16,QCTSDYPEHVC [SART3_Y541],0.583

# Target: FGFR1 (UniProt P11362)
# Test: as above
# FGFR1, sequence (P11362 whole entry, looked up): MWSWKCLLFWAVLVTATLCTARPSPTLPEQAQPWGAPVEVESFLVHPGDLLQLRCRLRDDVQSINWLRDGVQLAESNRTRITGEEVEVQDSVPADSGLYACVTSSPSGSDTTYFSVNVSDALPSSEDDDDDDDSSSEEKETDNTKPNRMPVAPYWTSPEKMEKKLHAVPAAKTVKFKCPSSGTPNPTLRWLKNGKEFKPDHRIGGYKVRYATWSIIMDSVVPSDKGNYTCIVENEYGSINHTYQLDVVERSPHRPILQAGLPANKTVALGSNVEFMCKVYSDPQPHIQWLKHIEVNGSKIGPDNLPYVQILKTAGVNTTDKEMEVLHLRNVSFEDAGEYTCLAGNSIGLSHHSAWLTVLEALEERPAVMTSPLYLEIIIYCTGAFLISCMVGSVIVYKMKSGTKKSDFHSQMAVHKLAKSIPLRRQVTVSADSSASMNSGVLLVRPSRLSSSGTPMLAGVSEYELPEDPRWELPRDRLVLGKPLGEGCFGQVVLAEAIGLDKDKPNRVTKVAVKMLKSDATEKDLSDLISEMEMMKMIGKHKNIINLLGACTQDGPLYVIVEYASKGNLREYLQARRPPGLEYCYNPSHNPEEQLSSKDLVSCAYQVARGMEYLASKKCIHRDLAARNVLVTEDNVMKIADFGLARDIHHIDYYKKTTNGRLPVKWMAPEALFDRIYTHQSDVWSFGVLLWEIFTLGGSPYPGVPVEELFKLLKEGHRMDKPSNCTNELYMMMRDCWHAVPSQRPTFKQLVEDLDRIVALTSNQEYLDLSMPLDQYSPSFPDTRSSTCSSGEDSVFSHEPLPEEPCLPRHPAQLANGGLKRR
row,Sequence,phosphorylation enrichment
1,ILGLEYSLRVP [HELZ2_Y1304],0.573
2,LWEGSYGKVKE [STK11_Y60_G56W],0.587
3,LANNEYYFQVC,15.7
4,VVIVLYFSLWK [SLC6A2_Y249],0.486
5,SEPDLYFDPRG [PKP1_Y160_C161Y_YF],9.25
6,AEFGLYAAMVR [VSX2_Y222_G223A_YF],0.614
7,KELAKYYKLHH [AK7_Y390_N389K],0.377
8,YIPSNYVAEDR [FRK_Y104],0.634
9,FCRITYDIFPF [INTS13_Y67_M66T_YF],0.514
10,SYCYRYRCAPR [SUMF1_Y344_A348P],0.511
11,CTTIHYNYMCH [TP53_Y234_N239H],0.514
12,TLEKYYFAFPG [SLC1A1_Y51_F50Y],14.6
13,TINPIHEHVGF [CHN1_Y143_Y143H_YF],0.393
14,IHFAIYLLKYS [ARMC9_Y107],0.368
15,NTGDYCDLYGG [PTPN11_Y63_Y63C],7.05
16,QCTSDYPEHVC [SART3_Y541],0.929

# Target: Grb2 SH2 (UniProt P62993)
# Test: SH2 binding enrichment of the phosphorylated peptide, bacterial display (enrichment ratio); higher = better substrate or ligand; peptides without Tyr show the background
# Grb2 SH2, sequence (P62993 whole entry, looked up): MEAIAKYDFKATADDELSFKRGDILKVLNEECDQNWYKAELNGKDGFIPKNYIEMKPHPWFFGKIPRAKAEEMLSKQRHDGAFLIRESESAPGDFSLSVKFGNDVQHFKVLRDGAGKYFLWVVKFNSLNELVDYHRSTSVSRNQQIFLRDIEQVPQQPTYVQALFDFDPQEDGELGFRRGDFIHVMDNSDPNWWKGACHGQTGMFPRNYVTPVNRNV
row,Sequence,SH2 binding enrichment
1,ILGLEYSLRVP [HELZ2_Y1304],0.782
2,LWEGSYGKVKE [STK11_Y60_G56W],0.645
3,LANNEYYFQVC,0.93
4,VVIVLYFSLWK [SLC6A2_Y249],1.59
5,SEPDLYFDPRG [PKP1_Y160_C161Y_YF],0.9
6,AEFGLYAAMVR [VSX2_Y222_G223A_YF],0.898
7,KELAKYYKLHH [AK7_Y390_N389K],1.01
8,YIPSNYVAEDR [FRK_Y104],1
9,FCRITYDIFPF [INTS13_Y67_M66T_YF],1.03
10,SYCYRYRCAPR [SUMF1_Y344_A348P],0.625
11,CTTIHYNYMCH [TP53_Y234_N239H],1.26
12,TLEKYYFAFPG [SLC1A1_Y51_F50Y],1.06
13,TINPIHEHVGF [CHN1_Y143_Y143H_YF],0.813
14,IHFAIYLLKYS [ARMC9_Y107],1.44
15,NTGDYCDLYGG [PTPN11_Y63_Y63C],1.01
16,QCTSDYPEHVC [SART3_Y541],0.939

# Target: c-Src SH2
# Test: as above
row,Sequence,SH2 binding enrichment
1,ILGLEYSLRVP [HELZ2_Y1304],0.484
2,LWEGSYGKVKE [STK11_Y60_G56W],0.507
3,LANNEYYFQVC,0.431
4,VVIVLYFSLWK [SLC6A2_Y249],1.22
5,SEPDLYFDPRG [PKP1_Y160_C161Y_YF],0.492
6,AEFGLYAAMVR [VSX2_Y222_G223A_YF],0.494
7,KELAKYYKLHH [AK7_Y390_N389K],0.782
8,YIPSNYVAEDR [FRK_Y104],0.761
9,FCRITYDIFPF [INTS13_Y67_M66T_YF],0.485
10,SYCYRYRCAPR [SUMF1_Y344_A348P],0.434
11,CTTIHYNYMCH [TP53_Y234_N239H],3.68
12,TLEKYYFAFPG [SLC1A1_Y51_F50Y],0.614
13,TINPIHEHVGF [CHN1_Y143_Y143H_YF],0.519
14,IHFAIYLLKYS [ARMC9_Y107],0.726
15,NTGDYCDLYGG [PTPN11_Y63_Y63C],0.988
16,QCTSDYPEHVC [SART3_Y541],0.866

# Target: SHP2-C SH2
# Test: as above
row,Sequence,SH2 binding enrichment
1,ILGLEYSLRVP [HELZ2_Y1304],0.938
2,LWEGSYGKVKE [STK11_Y60_G56W],1.21
3,LANNEYYFQVC,0.576
4,VVIVLYFSLWK [SLC6A2_Y249],1.56
5,SEPDLYFDPRG [PKP1_Y160_C161Y_YF],0.741
6,AEFGLYAAMVR [VSX2_Y222_G223A_YF],0.581
7,KELAKYYKLHH [AK7_Y390_N389K],0.622
8,YIPSNYVAEDR [FRK_Y104],0.948
9,FCRITYDIFPF [INTS13_Y67_M66T_YF],0.853
10,SYCYRYRCAPR [SUMF1_Y344_A348P],0.63
11,CTTIHYNYMCH [TP53_Y234_N239H],2.4
12,TLEKYYFAFPG [SLC1A1_Y51_F50Y],0.954
13,TINPIHEHVGF [CHN1_Y143_Y143H_YF],0.757
14,IHFAIYLLKYS [ARMC9_Y107],0.955
15,NTGDYCDLYGG [PTPN11_Y63_Y63C],0.747
16,QCTSDYPEHVC [SART3_Y541],0.833
